# Experimental data: paper PMC2432501, “Binding to the Minor Groove of the Double-Strand, Tau Protein Prevents DNA from Damage by Peroxidation”
# B1: 12 bp DNA (dsDNA)
# DNA 1: AGTGCATAAATAA
# DNA 2: CTTATTTATGCAC
# B2: 14 bp DNA (dsDNA)
# DNA 1: ACCGTGCATAAATAA
# DNA 2: CTTATTTATGCACGG
# B3: 13 bp DNA (dsDNA)
# DNA 1: ACGTGCATAAATAA
# DNA 2: CTTATTTATGCACG
# B4: 26 bp DNA (dsDNA)
# DNA 1: ACTCCGTGCATAAATAATAGGCACTCG
# DNA 2: CCGAGTGCCTATTATTTATGCACGGAG
# B5: 20 bp DNA (dsDNA)
# DNA 1: AACGAGAAGCGCGATCACAT
# DNA 2: ATGTGATCGCGCTTCTCGTT
# What was measured:
# tau23 [1] = molecular target: T1, tau23 (human, UniProt P10636-2 1-352); test: AFM; protein/DNA 8/1; particle 8.54 nm vs 7.82 nm tau alone; 20 mM Tris pH 7.2, 50 mM NaCl, 0.5 mM DTT, 1 mM MgCl2, 0.5 mM EDTA, room temperature 20-30 min; native PAGE in 1xTBE (20% gel at 4 C, or 8% for the 26 bp assay); conditions: protein: recombinant; 5' overhang 1 nt at both ends
# T1 sequence (P10636 other isoform, or with tags, fused parts or gaps): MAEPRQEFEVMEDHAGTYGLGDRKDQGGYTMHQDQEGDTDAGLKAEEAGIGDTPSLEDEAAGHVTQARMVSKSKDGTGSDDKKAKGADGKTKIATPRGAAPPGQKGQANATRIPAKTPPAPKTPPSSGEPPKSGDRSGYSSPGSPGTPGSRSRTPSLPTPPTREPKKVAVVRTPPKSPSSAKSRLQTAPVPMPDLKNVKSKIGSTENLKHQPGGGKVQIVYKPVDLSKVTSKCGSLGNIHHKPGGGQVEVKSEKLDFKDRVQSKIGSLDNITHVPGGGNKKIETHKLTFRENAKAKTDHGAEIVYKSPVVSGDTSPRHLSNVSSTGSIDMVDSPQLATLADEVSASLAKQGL
# tau23 [2] = molecular target: T1, tau23; test: EMSA; retardation depends on tau/DNA ratio; 20 mM Tris pH 7.2, 50 mM NaCl, 0.5 mM DTT, 1 mM MgCl2, 0.5 mM EDTA, room temperature 20-30 min; native PAGE in 1xTBE (20% gel at 4 C, or 8% for the 26 bp assay); conditions: protein: recombinant; 5' overhang 1 nt at both ends
# tau23 [3] = molecular target: T1, tau23; test: EMSA; 20 mM Tris pH 7.2, 50 mM NaCl, 0.5 mM DTT, 1 mM MgCl2, 0.5 mM EDTA, room temperature 20-30 min; native PAGE in 1xTBE (20% gel at 4 C, or 8% for the 26 bp assay); conditions: protein: recombinant; 5' overhang 1 nt at both ends
# tau23 [4] = molecular target: T1, tau23; test: EMSA; shift from [tau]/[bp] 1/100, greatest at 1/3; 20 mM Tris pH 7.2, 50 mM NaCl, 0.5 mM DTT, 1 mM MgCl2, 0.5 mM EDTA, room temperature 20-30 min; native PAGE in 1xTBE (20% gel at 4 C, or 8% for the 26 bp assay); conditions: protein: recombinant; 5' overhang 1 nt at both ends
# tau23 [5] = molecular target: T1, tau23; test: EMSA; marked shift from [protein]/[DNA] 1/2; 2.5 uM DNA; 20 mM Tris pH 7.2, 50 mM NaCl, 0.5 mM DTT, 1 mM MgCl2, 0.5 mM EDTA, room temperature 20-30 min; native PAGE in 1xTBE (20% gel at 4 C, or 8% for the 26 bp assay); conditions: protein: recombinant; blunt
binder,measurement,setting,value
B1,binding result,tau23 [1],no binding
B2,binding result,tau23 [2],binds
B3,binding result,tau23 [3],binds
B4,binding result,tau23 [4],binds
B5,binding result,tau23 [5],binds
